Results reported in publication PMC11481484.

B1: Rubella virus capsid protein, wild type (natural protein)
chain: MASTTPITMEDLQKALEAQSRALRAGLAAGASQSRRPRPPRQRDSSTSGDDSGRDSGGPRRRRGNRGRGQRKDWSRAPPPPEERQESRSQTPAPKPSRAPPQQPQPPRMQTGRGGSAPRPELGPPTNPFQAAVARGLRPPLHDPDTEAPTEACVTSWLWSEGEGAVFYRVDLHFTNLGTPPLDEDGRWDPALMYNPCGPEPPAHVVRAYNQPAGDVRGVWGKGERTYAEQDFRVGGTRWHRLLRMPVRGLDGDTAPLPPHTTERIETRSARHPWRIRFGAPQAFLAGLLLAAVAVGTARA

Legend:
Assay in all cases: cross-linking + co-IP; BHK-21 cells 42 h post-electroporation with WT or mutant viral RNA cross-linked with 1 mM DSP in PBS, 10 min, room temperature, quenched with 125 mM glycine; lysis buffer 2 (10 mM sodium phosphate pH 7.4, 50 mM NaCl, 1% Triton X-100); IP with mAb E1-20 or control mAb; cross-link reversed by DTT; western blot with RuV pAb
[1] = molecular target: Rubella virus E2 envelope glycoprotein of the second-site revertant (N277I in the Y281A background) (Rubella virus (RuV))
[2] = molecular target: Rubella virus E2 envelope glycoprotein, pseudorevertant Y281V (Rubella virus (RuV))
[3] = molecular target: Rubella virus E2 envelope glycoprotein, Y281A mutant (Rubella virus (RuV))

Molecule	Cp/E2 ratio in the E1 mAb IP, normalised to WT (ratio, WT set to 1) [1]	Cp/E2 ratio in the E1 mAb IP, normalised to WT (ratio, WT set to 1) [2]	Cp/E2 ratio in the E1 mAb IP, normalised to WT (ratio, WT set to 1) [3]
Rubella virus capsid protein, D215A (second-site revertant) (from UniProt P08563 1-300) (natural protein)	0.85	–	–
B1	–	0.46	0.31
